B1: Cryptococcus neoformans recombinant antiphagocytic protein 1 (rApp1) (natural protein)
chain: MMSSATAELCFDCANCVEMLPKGTTKSVTRPEILERLTRIENHIEVQTALLSTMAASKDYKKKVYTDDDDELEEPEVQLCNMTCEMAALKTYKPQTKVSNHKIVIEAALGRLDHVNGESSIRWAQSVILGLQAAETLQNDKQMMELARVIGCLEACELRWAGDWRAGVASITLKELRTLMI
B2: App1 in total protein from C. neoformans WT (H99) (natural protein)
chain: B1 chain

How the values were obtained:
[1] = target: the molecule itself; test: SDS-PAGE with tryptic digestion and mass spectrometry of the bands
[2] = target: the molecule itself; test: SDS-PAGE and Western blot

| Protein | stoichiometry N [1] | stoichiometry N [2] |
| --- | --- | --- |
| B1 | 2 |  |
| B2 |  | 2 |
